Results: patent US20090118127A1
pKd: −log10 of the molar value.

Target: extra-cellular domain of recombinantly expressed RSV F protein (human Respiratory Syncytial Virus)
Assay: Biacore (SPR)

Sequence of extra-cellular domain of recombinantly expressed RSV F protein (human Respiratory Syncytial Virus) (P03420 26-524): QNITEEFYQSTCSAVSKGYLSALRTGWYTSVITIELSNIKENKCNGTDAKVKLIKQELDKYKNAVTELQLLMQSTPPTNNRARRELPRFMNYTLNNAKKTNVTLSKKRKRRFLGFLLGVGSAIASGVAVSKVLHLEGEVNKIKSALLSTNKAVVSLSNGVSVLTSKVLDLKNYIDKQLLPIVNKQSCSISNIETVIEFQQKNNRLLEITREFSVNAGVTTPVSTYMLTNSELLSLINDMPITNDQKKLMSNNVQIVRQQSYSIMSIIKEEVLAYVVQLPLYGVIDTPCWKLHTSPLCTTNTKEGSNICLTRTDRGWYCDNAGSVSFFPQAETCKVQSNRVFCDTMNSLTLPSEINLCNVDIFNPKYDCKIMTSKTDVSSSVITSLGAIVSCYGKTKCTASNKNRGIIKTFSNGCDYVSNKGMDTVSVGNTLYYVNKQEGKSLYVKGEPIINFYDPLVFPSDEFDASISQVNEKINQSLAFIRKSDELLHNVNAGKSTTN

Substance	pKd
Numax™ (antibody)	9.62
SYNAGIS® brand of pavilizumab (antibody)	9.40
